This note sets out measurements from paper PMC7371702.

The target in experiment [1] is YFP-tagged α7 nicotinic acetylcholine receptor (human CHRNA7 with YFP fused into the M3-M4 loop) (human) (UniProt P36544).
The target is the same in experiment [2]. The source holds these as a separate data set.

Sequence of UniProt P36544 (P36544 23-502): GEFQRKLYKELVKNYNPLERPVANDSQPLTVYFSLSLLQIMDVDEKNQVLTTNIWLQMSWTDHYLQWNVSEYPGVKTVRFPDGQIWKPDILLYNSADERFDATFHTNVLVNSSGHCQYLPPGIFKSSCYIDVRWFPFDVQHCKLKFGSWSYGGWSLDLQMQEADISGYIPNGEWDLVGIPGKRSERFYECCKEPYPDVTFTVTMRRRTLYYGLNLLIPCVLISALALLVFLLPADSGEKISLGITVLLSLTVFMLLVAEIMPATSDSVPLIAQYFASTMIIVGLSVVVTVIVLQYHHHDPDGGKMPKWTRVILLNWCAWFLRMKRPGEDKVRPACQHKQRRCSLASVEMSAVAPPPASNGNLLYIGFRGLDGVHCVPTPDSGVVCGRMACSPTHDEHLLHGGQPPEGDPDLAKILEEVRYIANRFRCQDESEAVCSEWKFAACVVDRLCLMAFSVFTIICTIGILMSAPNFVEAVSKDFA

B1: Soluble streptavidin-binding peptide (SBP)-tagged mouse Ly6H (natural protein)
chain: LWCQDCTLANSSHCAPKQCQPTDTVCASVRITDPSSSRKDHSVNKMCASSCDFVKRHFFSDYLMGFINSGILKVDVDCCEKDLCN
As for B1, the inhibition of ligand-evoked α7 nAChR current in TARO cells by exogenously added soluble Ly6H-SBP (2.5 μM) in experiment [1] was 14%. The inhibitory ratio: post-stimulation peak amplitude divided by pre-stimulation peak amplitude of choline (30 μM) + PNU120596 (1 μM)-evoked current in TARO cells, 2.5 μM soluble protein applied for 3 min in experiment [2] was 82.7%.

B2: Soluble SBP-tagged mouse Ly6H R38A mutant (natural protein)
chain: LWCQDCTLANSSHCAPKQCQPTDTVCASVRITDPSSSAKDHSVNKMCASSCDFVKRHFFSDYLMGFINSGILKVDVDCCEKDLCN
For the molecule B2, the inhibitory ratio: post-stimulation peak amplitude divided by pre-stimulation peak amplitude of choline (30 μM) + PNU120596 (1 μM)-evoked current in TARO cells, 2.5 μM soluble protein applied for 3 min in experiment [2] turned out to be 100%.
